Data taken from patent US20220204613A1 (D 10 THERAPEUTICS, published 2022).

Target: T1, human CD47 protein (human, UniProt Q08722 19-139, limits assumed)
T1 construct: also called human CD47 antigen
Assay: SPR Biacore, supernatant antibody Fc-captured, human CD47 analyte 5 nM
Procedure: Production and affinity ranking of humanized antibodies. The designed plasmids of heavy chain and light chain were sent for 3 mL transfection following GenScript's SOP. For affinity ranking, Antibodies were captured on the sensor chip through Fc capture method. Human CD47 protein was used as the analyte. The surface was regenerated before the injection of another antibody. The process was repeated until all antibodies were analyzed. The off-rates of antibodies were obtained from fitting the experimental data locally to 1:1 interaction model using the Biacore® T200/8K evaluation software. The antibodies were ranked by their dissociation rate constants (off-rates, kd).

T1 sequence (Q08722 19-139 limits assumed): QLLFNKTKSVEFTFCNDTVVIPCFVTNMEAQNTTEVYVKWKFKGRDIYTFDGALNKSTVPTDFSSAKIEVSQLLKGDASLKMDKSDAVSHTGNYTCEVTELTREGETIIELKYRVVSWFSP

| Binder | Kd | koff | kon |
| --- | --- | --- | --- |
| VH2+VL2 (antibody, human IgG4 S228P, kappa, V domains shown, Humanized IgG, hIgG4 CH (S228P) and human kappa CL; leader residues 1-19 of each entry left out; Tested from supernatant; also called U0959FD090-VH2 + U0959FD090-VL2) VH: QVQLVQSGAEVKKPGASVKVSCKASGYTFTSSVIHWVRQAPGQGLEWLGYINPYSDGTKFNEKCKIRATMTSDTSISTAYMELSRLRSDDTAVYYCARGLIGTRYDSWFAYWGQGTLVTVSS VL: DIQMTQSPSSLSASVGDRVTITCRTSQDINNYLNWYQQKPGKAVKLLIYYTSRLHSGVPSRFSGSGSGTDFTFTISSLQPEDIATYFCQQGNTLPYTFGGGTKVEIKR | 0.698 nM | 0.00413 s⁻¹ | 5.92e+06 M⁻¹ s⁻¹ |
| VH1+VL2 (antibody, human IgG4 S228P, kappa, V domains shown, Humanized IgG, hIgG4 CH (S228P) and human kappa CL; leader residues 1-19 of each entry left out; Tested from supernatant; also called U0959FD090-VH1 + U0959FD090-VL2) VH: QVQLVQSGAEVKKPGASVKVSCKASGYTFTSSVIHWVRQAPGQGLEWMGYINPYSDGTKFNEKCKIRVTMTRDTSISTAYMELSRLRSDDTAVYYCARGLIGTRYDSWFAYWGQGTLVTVSS VL: DIQMTQSPSSLSASVGDRVTITCRTSQDINNYLNWYQQKPGKAVKLLIYYTSRLHSGVPSRFSGSGSGTDFTFTISSLQPEDIATYFCQQGNTLPYTFGGGTKVEIKR | 0.368 nM | 0.00159 s⁻¹ | 4.32e+06 M⁻¹ s⁻¹ |
| VH3+VL4 (antibody, human IgG4 S228P, kappa, V domains shown, Humanized IgG, hIgG4 CH (S228P) and human kappa CL; leader residues 1-19 of each entry left out; Tested from supernatant; also called U0959FD090-VH3 + U0959FD090-VL4) VH: QVQLVQSGAEVKKPGASVKVSCKASGYTFTSSVIHWVKQAPGQGLEWLGYINPYSDGTKFNEKCKIRVTLTSDTSISTAYMELSRLRSDDTAVYYCARGLIGTRYDSWFAYWGQGTLVTVSS VL: DIQMTQSPSSLSASVGDRVTISCRTSQDINNYLNWYQQKPGKTVKLLIYYTSRLHSGVPSRFSGSGSGTDYTFTISSLQPEDIATYFCQQGNTLPYTFGGGTKVEIKR | 0.555 nM | 0.00305 s⁻¹ | 5.49e+06 M⁻¹ s⁻¹ |
| VH2+VL4 (antibody, human IgG4 S228P, kappa, V domains shown, Humanized IgG, hIgG4 CH (S228P) and human kappa CL; leader residues 1-19 of each entry left out; Tested from supernatant; also called U0959FD090-VH2 + U0959FD090-VL4) VH: QVQLVQSGAEVKKPGASVKVSCKASGYTFTSSVIHWVRQAPGQGLEWLGYINPYSDGTKFNEKCKIRATMTSDTSISTAYMELSRLRSDDTAVYYCARGLIGTRYDSWFAYWGQGTLVTVSS VL: DIQMTQSPSSLSASVGDRVTISCRTSQDINNYLNWYQQKPGKTVKLLIYYTSRLHSGVPSRFSGSGSGTDYTFTISSLQPEDIATYFCQQGNTLPYTFGGGTKVEIKR | 0.585 nM | 0.00332 s⁻¹ | 5.67e+06 M⁻¹ s⁻¹ |
| VH3+VL1 (antibody, human IgG4 S228P, kappa, V domains shown, Humanized IgG, hIgG4 CH (S228P) and human kappa CL; leader residues 1-19 of each entry left out; Tested from supernatant; also called U0959FD090-VH3 + U0959FD090-VL1) VH: QVQLVQSGAEVKKPGASVKVSCKASGYTFTSSVIHWVKQAPGQGLEWLGYINPYSDGTKFNEKCKIRVTLTSDTSISTAYMELSRLRSDDTAVYYCARGLIGTRYDSWFAYWGQGTLVTVSS VL: DIQMTQSPSSLSASVGDRVTITCRTSQDINNYLNWYQQKPGKAPKLLIYYTSRLHSGVPSRFSGSGSGTDFTFTISSLQPEDIATYYCQQGNTLPYTFGGGTKVEIKR | 0.803 nM | 0.00553 s⁻¹ | 6.89e+06 M⁻¹ s⁻¹ |
| VH4+VL2 (antibody, human IgG4 S228P, kappa, V domains shown, Humanized IgG, hIgG4 CH (S228P) and human kappa CL; leader residues 1-19 of each entry left out; Tested from supernatant; also called U0959FD090-VH4 + U0959FD090-VL2) VH: QVQLVQSGAEVKKPGASVKVSCKASGYTFTSSVIHWVKQAPGQGLEWLGYINPYSDGTKFNEKCKIRATMTSDKSISTAYMELSRLRSDDTAVYYCARGLIGTRYDSWFAYWGQGTLVTVSS VL: DIQMTQSPSSLSASVGDRVTITCRTSQDINNYLNWYQQKPGKAVKLLIYYTSRLHSGVPSRFSGSGSGTDFTFTISSLQPEDIATYFCQQGNTLPYTFGGGTKVEIKR | 0.772 nM | 0.00335 s⁻¹ | 4.34e+06 M⁻¹ s⁻¹ |
| VH4+VL1 (antibody, human IgG4 S228P, kappa, V domains shown, Humanized IgG, hIgG4 CH (S228P) and human kappa CL; leader residues 1-19 of each entry left out; Tested from supernatant; also called U0959FD090-VH4 + U0959FD090-VL1) VH: QVQLVQSGAEVKKPGASVKVSCKASGYTFTSSVIHWVKQAPGQGLEWLGYINPYSDGTKFNEKCKIRATMTSDKSISTAYMELSRLRSDDTAVYYCARGLIGTRYDSWFAYWGQGTLVTVSS VL: DIQMTQSPSSLSASVGDRVTITCRTSQDINNYLNWYQQKPGKAPKLLIYYTSRLHSGVPSRFSGSGSGTDFTFTISSLQPEDIATYYCQQGNTLPYTFGGGTKVEIKR | 0.839 nM | 0.005 s⁻¹ | 5.96e+06 M⁻¹ s⁻¹ |
| VH2+VL3 (antibody, human IgG4 S228P, kappa, V domains shown, Humanized IgG, hIgG4 CH (S228P) and human kappa CL; leader residues 1-19 of each entry left out; Tested from supernatant; also called U0959FD090-VH2 + U0959FD090-VL3) VH: QVQLVQSGAEVKKPGASVKVSCKASGYTFTSSVIHWVRQAPGQGLEWLGYINPYSDGTKFNEKCKIRATMTSDTSISTAYMELSRLRSDDTAVYYCARGLIGTRYDSWFAYWGQGTLVTVSS VL: DIQMTQSPSSLSASVGDRVTITCRTSQDINNYLNWYQQKPGKAVKLLIYYTSRLHSGVPSRFSGSGSGTDYTFTISSLQPEDIATYFCQQGNTLPYTFGGGTKVEIKR | 0.597 nM | 0.00348 s⁻¹ | 5.83e+06 M⁻¹ s⁻¹ |
| VH3+VL3 (antibody, human IgG4 S228P, kappa, V domains shown, Humanized IgG, hIgG4 CH (S228P) and human kappa CL; leader residues 1-19 of each entry left out; Tested from supernatant; also called U0959FD090-VH3 + U0959FD090-VL3) VH: QVQLVQSGAEVKKPGASVKVSCKASGYTFTSSVIHWVKQAPGQGLEWLGYINPYSDGTKFNEKCKIRVTLTSDTSISTAYMELSRLRSDDTAVYYCARGLIGTRYDSWFAYWGQGTLVTVSS VL: DIQMTQSPSSLSASVGDRVTITCRTSQDINNYLNWYQQKPGKAVKLLIYYTSRLHSGVPSRFSGSGSGTDYTFTISSLQPEDIATYFCQQGNTLPYTFGGGTKVEIKR | 0.602 nM | 0.00312 s⁻¹ | 5.18e+06 M⁻¹ s⁻¹ |
